# In patent US11319374B2, “Inhibitors of prototypic galectin dimerization and uses thereof” (INSTITUT NATIONAL DE LA RECHERCHE SCIENTIFIQUE, priority 2015, dated 2022):
# Where no end group is shown, it is not given here.
# What was measured:
# [1] = target: T1, hGal-7 homodimer (Homo sapiens, UniProt P47929); assay: hGal-7 homodimer disruption, low-SDS native gel electrophoresis / Western blotting; type: biochemical; details: recombinant hGal-7 0.5 μM, increasing peptide concentrations
# T1 construct: made in house; host or cells: E. coli BL21 (DE3)
# T1 sequence (P47929 2-136 limits assumed): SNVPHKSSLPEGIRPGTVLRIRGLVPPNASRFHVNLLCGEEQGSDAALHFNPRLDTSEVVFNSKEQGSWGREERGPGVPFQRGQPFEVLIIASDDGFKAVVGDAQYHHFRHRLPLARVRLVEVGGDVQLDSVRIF
# Protocol: Production of recombinant hGal-7 and hGal-1. Human Gal-7 cDNA was cloned into pET-22b(+) using Ndel and HindIII restriction enzymes. Human pET-Gal-1 vector was generously donated by Dr. S. Sato (McGill University, QC, Canada). The proteins were produced in E. coli BL21 (DE3) cells at 37° C. Isopropyl p-D-1-thiogalactopyranoside (IPTG) (1 mM) was added to the bacterial culture at OD600nm=0.6-0.7 and then incubated for 4 h at 37° C. to allow protein production. Bacterial pellets were resuspended in lysis buffer (0.7 mg/mL lysozyme, 10 mM Tris pH 8, 100 mM NaCl, 1 mM EDTA, 1 mM DTT and a protease inhibitor cocktail) and then incubated for 1 h at 37° C. prior to centrifugation for 30 min at 15,000×g (4° C.). The supernatant was then filtered with 500 mL bottle top filter ([…]) (Corning®, New York, N.Y., USA) and then ran through a lactose-agarose column (Sigma®, St. Louis, Mo., USA). The protein was eluted in 1 mL fractions with 150 mM lactose solution. Purified fractions were analyzed by SDS-PAGE. The hGal-7 was then concentrated and purified using Centrifugal filter units (Amicon® Ultra-15, 10K) (EMD®, Etobicoke, ON) in 20 mM potassium phosphate at pH 7.1. All subsequent experiments with the recombinant proteins were performed in the same buffer solution unless mentioned otherwise. Brilliant Coomassie blue was purchased from BioRad® (Bio-Rad Laboratories®, Mississauga, ON, Canada). The recombinant human Bcl-2 protein fragment was purchased from Abcam® (Abcam®, Cambridge, UK, Cat #ab73696).
# Western blotting. For the apoptosis tests, whole-cell extracts were homogenized and resuspended in RIPA buffer (Thermo Fisher Scientific®, Rockford, Ill., USA) containing protease inhibitors (Roche®, Laval, QC, Canada). Equal amounts of whole-cell extracts (25 μg) were separated on SDS-PAGE and transferred onto nitrocellulose membranes (Bio-Rad Laboratories®). The membranes were first blocked with 5% milk [w/v] in TBS/0.5% Tween® 20 [v/v] for 1 h at room temperature and subsequently blotted overnight in a solution of TBS containing 3% BSA [w/v] and 0.5% Tween 20 [v/v]. The following antibodies were used: a rabbit anti-Poly-(ADP-ribose) polymerase (PARP)-1 (p25) polyclonal antibody (1:5000; Epitomics®, Burlingame, Calif., USA) and a mouse anti-β-actin (1:10000; Sigma-Aldrich®, St-Louis, Mo., USA). Secondary antibodies consisted of horseradish peroxidase-conjugated donkey anti-rabbit (GE Healthcare®, Buckinghamshire, England) and sheep anti-mouse (GE Healthcare®) IgG. Detection was performed using the enhanced chemiluminescence method (GE Healthcare®). For the recombinant protein tests, each peptide was dissolved and maintained in 20 mM potassium phosphate at pH 7.1. The recombinant proteins and peptide dilutions were pre-incubated for 1 h at 4° C. prior to gel migration. The native polyacrylamide gel was made without SDS to allow molecular weight differentiation between the dimer and monomer. The following antibodies were used: a goat anti-Gal-7 antibody (1:10000; R&D Systems®, Minneapolis, Minn., USA), a mouse anti-Gal-1 antibody (1:10000; Proteintech®, Chicago, Ill., USA) and a rabbit anti-Bcl-2 antibody (1:1000; Abeam®, Cambridge, UK). Secondary antibodies consisted of donkey anti-goat (R&D Systems®) or sheep anti-mouse and sheep anti-rabbit (GE Healthcare®) IgG. Detection was performed as described above.
# To determine whether these peptides could inhibit the formation of the hGal-7 homodimer, recombinant hGal-7 (0.5 μM) was incubated with increasing concentrations of hGal-7(13-25), hGal-7(85-102), hGal-7(95-108) or hGal 7(129-135) and the formation of homodimers was measured. To measure the ability of the peptides to disrupt the formation of hGal-7 dimers, a mild denaturing (low SDS) native gel electrophoresis, a commonly used approach to visualize monomer-dimer equilibrium, was used (FIG. 1A and FIG. 6).
# [2] = tested on: Jurkat T cells; assay: FITC-labeled hGal-7 binding on Jurkat T cells, flow cytometry; type: cell-based; details: FITC-labeled hGal-7 0.1 μM pre-incubated with peptide, FIG. 4
# Protocol: FITC conjugation and hGal-7 binding assay. To assess hGal-7 binding onto Jurkat T cells, 5 μL of a 1.25 mg/mL fluorescein isothiocyanate (FITC)/DMSO solution was added to 300 μL of 1.7 μg/μL recombinant hGal-7 in a 0.1 M NaHCO3 pH 9.2 solution and incubated for 1 h at room temperature on a roller. FITC-labeled hGal-7 was then purified using a PD-10 Sepharose® column (GE healthcare) and eluted with PBS containing 0.01% [v/v] sodium azide. FITC-labeled hGal-7 (0.1 μM) was then pre-incubated with hGal-7(129-135) (or related peptides) in 20 mM potassium phosphate buffer pH 7.1 for 1 h at 4° C. Jurkat cells (5×10^5 cells per sample) were harvested in PBS-0.01% [v/v] sodium azide and incubated for 30 min on ice with the FITC-labeled hGal-7 with and without peptides. Cells were then washed with PBS-0.01% [v/v] sodium azide and resuspended in 400 μL of the same buffer and analyzed on a FACSCalibur® (BD Biosciences®).
# (§1) It was thus tested whether hGal-7(129-135) could modulate the binding of hGal-7 on Jurkat T cells, a cell model that is commonly used to test the pro-apoptotic activity of galectins. For this purpose, recombinant hGal-7 was labeled with fluorescein isothiocyante (FITC) and its binding on the surface of Jurkat T cells was measured by flow cytometry in absence or presence of increasing concentrations of hGal-7(129-135). […]
# [3] = tested on: Jurkat T cells; assay: hGal-7-induced apoptosis of Jurkat T cells, PARP-1 cleavage by Western blotting; type: cell-based; details: 4 h at 37° C., serum-free RPMI, FIG. 5A
# Protocol: Western blotting. For the apoptosis tests, whole-cell extracts were homogenized and resuspended in RIPA buffer (Thermo Fisher Scientific®, Rockford, Ill., USA) containing protease inhibitors (Roche®, Laval, QC, Canada). Equal amounts of whole-cell extracts (25 μg) were separated on SDS-PAGE and transferred onto nitrocellulose membranes (Bio-Rad Laboratories®). The membranes were first blocked with 5% milk [w/v] in TBS/0.5% Tween® 20 [v/v] for 1 h at room temperature and subsequently blotted overnight in a solution of TBS containing 3% BSA [w/v] and 0.5% Tween 20 [v/v]. The following antibodies were used: a rabbit anti-Poly-(ADP-ribose) polymerase (PARP)-1 (p25) polyclonal antibody (1:5000; Epitomics®, Burlingame, Calif., USA) and a mouse anti-β-actin (1:10000; Sigma-Aldrich®, St-Louis, Mo., USA). Secondary antibodies consisted of horseradish peroxidase-conjugated donkey anti-rabbit (GE Healthcare®, Buckinghamshire, England) and sheep anti-mouse (GE Healthcare®) IgG. […]
# as §1
# [4] = tested on: Jurkat T cells; assay: Apoptosis/toxicity of peptide alone in Jurkat T cells, Annexin V/PI; type: cell-based
# Protocol: FIG. 8A: Flow cytometry histogram showing propidium iodide (PI) (FL3) labeling of Jurkat T cells without or with 200 μM of hGal-7(129-135). FIG. 8B: Histogram showing the average percentage of Annexin-V (AV) positive Jurkat T cells in the presence of increasing concentrations of […]. FIG. 8C: Flow cytometry histogram showing PI (FL3) labeling of Jurkat T cells without or with 200 μM of PACAP28-38 FIG. 8D: Histogram showing the average percentage of AV-positive Jurkat T cells in the presence of increasing concentrations of PACAP28-38. The percentage of cell death was obtained as described above. Error bars represent standard deviation. Significance was calculated with respect to AF samples. Results are representative of three independent experiments.
# Apoptosis assays with Annexin V/PI staining. Apoptosis was measured by flow cytometry using FITC-labeled Annexin V (Biolegend®, San Diego, Calif., USA) and propidium iodide. Briefly, the corresponding dilutions of recombinant hGal-7 and hGal-7(129-135) peptides were pre-incubated for 1 h at 4° C. in serum-free RPMI 1640 medium. 2.5×10^5 Jurkat cells were then harvested in the same medium and incubated with their corresponding dilutions at 37° C. for 4 h. Cells were washed once in PBS and once in binding buffer (0.01 M HEPES, 0.14 M NaCl, 2.5 mM CaCl2, pH 7.4). Cells were then incubated for 15 min with Annexin V in the dark at room temperature. A total of 400 μL of binding buffer containing 0.25 μg/mL propidium iodide was added to the cells before analysis by flow cytometry.
Substance,disruption of hGal-7 homodimers (in words) [1],fluorescent intensity of Jurkat T cells due to FITC-labeled hGal-7 binding [2],"inhibition of hGal-7-induced apoptosis, PARP-1 cleavage [3]","toxicity in Jurkat T cells ([4]; PI labeling at 200 μM, Annexin V at increasing concentrations, FIGS. 8A to 8D)","induction of apoptosis by peptide alone ([4]; peptide alone, FIG. 8)"
"H-Asp-Gly-Phe-Lys-Ala-Val-Val-Gly-Asp-Ala-Gln-Tyr-His-His-NH2 (H-DGFKAVVGDAQYHH-NH2; listed as Homo sapiens) [hGal-7(95-108), peptide corresponding to residues 95-108 of hGal-7]",less potent than hGal-7(129-135),,,,
"H-Ile-Arg-Pro-Gly-Thr-Val-Leu-Arg-Ile-Arg-Gly-Leu-Val-NH2 (H-IRPGTVLRIRGLV-NH2; listed as Homo sapiens) [hGal-7(13-25), peptide corresponding to residues 13-25 of hGal-7]",less potent than hGal-7(129-135),,,,
"H-Phe-Glu-Val-Leu-lle-Ile-Ala-Ser-Asp-Asp-Gly-Phe-Lys-Ala-Val-Val-Gly-NH2 (H-FEVLIIASDDGFKAVVG-NH2; listed as Homo sapiens) [hGal-7(85-102), peptide corresponding to residues 85-102 of hGal-7]",less potent than hGal-7(129-135),,,,
"L-A-S-V-R-I-F-NH2 (LASVRIF-NH2; listed as Homo sapiens) [[Ala^130]hGal-7(129-135), alanine substitute peptide of hGal-7(129-135)]",abrogates the ability of the peptide to disrupt hGal-7 homodimers,,,,
PACAP(28-38): control peptide selected based on similarity in amino acid length and minimal toxicity on the cell line (GKRYKQRVKNK) [reference compound],No such effect was observed,No such effect was observed,No such effect was observed,do not induce toxicity in Jurkat T cells,did not induce apoptosis in Jurkat T cells
